Data taken from patent publication US8497352B2, “Use of Wnt5-α peptide derivates for the treatment of melanoma and gastric cancer” (Wntresearch AB, priority 2008, dated 2013).

Experiments:
[1] = test system: A2058 melanoma cells; test: Cell adhesion assay, A2058 cells; format: cell-based, human; settings: recombinant Wnt-5a, 60 min adhesion
Method: Cells pre-treated and stimulated as described below were detached with Versene, re-suspended in serum-free RPMI medium and samples containing 30,000 cells from each treatment group were added to each well of a 96-well plate The cells were allowed to adhere for 60 min at 37° C. in a humidified atmosphere of 5% carbon dioxide after which the non-adherent cells were washed away with PBS. The adherent cells were fixed in 1% glutaraldehyde for 10 min at room temperature and then stained with 0.5% crystal violet in 20% methanol for 10 min. Finally the stain from each group of cells was dissolved in 50% acetic acid. The amount of dissolved stain from each well was thereafter measured in a Fluostar plate reader (BMG Lab Technologies GmbH, Offenberg, Germany) at 544 nm. The individual samples from each separate experiment were analysed in quadruplicate and the accumulated data were based on 5 separate experiments. The results are illustrated in FIG. 4. • A) A2058 melanoma cells were stimulated with the indicated concentrations of Wnt-5a, detached with Versene and resuspended as single cells in serum-free medium in the presence or absence of recombinant Wnt-5a at the indicated concentrations. Cells were then allowed to adhere in a 96-well plate. After a period of 60 min the non-adherent cells were washed away while the adherent cells were stained and their number determined. This number is presented as a percentage of the control (no Wnt-5a) stimulation (FIG. 4A) • B) A2058 melanoma cells were cultured to confluence in a 12-well plate after which a scratch was inflicted in each well, the medium was changed to fresh serum-free medium lacking (closed circles) or containing 0.2 μg/ml Wnt-5a (open squares). (FIG. 4B) • C) A2058 melanoma cells were cultured to confluence in a 12-well plate after which a scratch was inflicted to each well, the medium was changed to fresh serum-free medium in the absence of any additive (closed circle), the presence of 0.2 μg/ml Wnt-5a alone (open squares) or the presence of 0.2 μg/ml Wnt-5a with 100 μM Box5 (open triangle). (FIG. 4C) • D) HTB63 melanoma cells were cultured to confluence in a 12-well dish after which a scratch was inflicted to each well, the medium was changed to fresh serum-free medium (closed circle), conditioned medium (open squares) or conditioned medium supplemented with 100 μM Box5 (open triangle). To record changes in migration in panels B-D, a picture was taken from each scratch/well from the same area of cells after 0, 16, 24, 40 or 48 hours, and the wound-healing was expressed as percentage of wound area closed. […] The cells were then allowed to invade for 24 hours after which the attached cells on the lower side of the membrane were counted. […]

[2] = test system: Wnt-5a-induced Ca^2+ signaling; test: Determination of cytosolic free calcium levels (fura-2) in A2058 cells; format: cell-based, human; settings: 0.1 μg/ml Wnt-5a
Method: Cells grown on a glass cover slip were incubated with 4 μM fura-2/AM in culture medium for 30 minutes at 37° C. (Dejmek et al., 2006). After fura-2 loading of the cells, the cover slips were washed and mounted in a specially designed chamber to which was added a calcium-containing medium (136 mM NaCl, 4.7 mM KCl, 1.2 mM MgSO4, 1.1 mM CaCl2, 1.2 KH2PO4, 5 mM NaHCO3, 5.5 mM glucose and 20 mM Hepes, pH 7.4). The chamber was then placed in a system consisting of a NIKON Diaphot microscope connected to a Photon Technology International (PTI) imaging system. The cells were first allowed to rest for 10 minutes before any stimulation was performed. Fura-2 fluorescence was then recorded continuously from the cells before and after the stimulations with either Wnt-5a, endothelin-1 or charbacol (as indicated in the legend to FIG. 8) using an excitation wavelength rapidly alternating between 340 and 380 nm, while the emission wavelength was set at 510 nm. The fluorescence intensity ratios (340/380 nm) were subsequently calculated and analyzed using the PTI Image Master Software. Statistical analysis—The Student's t-test for unpaired samples was used to analyze differences in the experiments, where *=p<0.05, **=p<0.01, and ***=p<0.001

B1: Wnt-5a: human recombinant Wnt-5a protein from R&D Systems (protein, UniProt P41221 62-380, looked up)
Protein Wnt-5a: IIGAQPLCSQLAGLSQGQKKLCHLYQDHMQYIGEGAKTGIKECQYQFRHRRWNCSTVDNTSVFGRVMQIGSRETAFTYAVSAAGVVNAMSRACREGELSTCGCSRAARPKDLPRDWLWGGCGDNIDYGYRFAKEFVDARERERIHAKGSYESARILMNLHNNEAGRRTVYNLADVACKCHGVSGSCSLKTCWLQLADFRKVGDALKEKYDSAAAMRLNSRGKLVQVNSRFNSPTTQDLVYIDPSPDYCVRNESTGSLGTQGRLCNKTSEGMDGCELMCCGRGYDQFKTVQTERCHCKFHWCCYVKCKKCTEIVDQFVCK
- Concentration giving maximal effect on adhesion of A2058 cells [1]: 0.2 µg/mL
- Effect on adhesive capacity of A2058 cells [1]: enhanced
- Cytosolic Ca^2+ signal in A2058 cells [2]: triggers a rapid cytosolic Ca^2+ signal
